Measured values published in US20260028424A1 (GRANULAR THERAPEUTICS, published 2026).

T1: CD203c (ENPP3) (antigen of the binding assay of FIG. 9B) (Homo sapiens (Human), UniProt O14638 31-875)
T1 construct: not shown: His tag of the recombinant protein
T1 sequence: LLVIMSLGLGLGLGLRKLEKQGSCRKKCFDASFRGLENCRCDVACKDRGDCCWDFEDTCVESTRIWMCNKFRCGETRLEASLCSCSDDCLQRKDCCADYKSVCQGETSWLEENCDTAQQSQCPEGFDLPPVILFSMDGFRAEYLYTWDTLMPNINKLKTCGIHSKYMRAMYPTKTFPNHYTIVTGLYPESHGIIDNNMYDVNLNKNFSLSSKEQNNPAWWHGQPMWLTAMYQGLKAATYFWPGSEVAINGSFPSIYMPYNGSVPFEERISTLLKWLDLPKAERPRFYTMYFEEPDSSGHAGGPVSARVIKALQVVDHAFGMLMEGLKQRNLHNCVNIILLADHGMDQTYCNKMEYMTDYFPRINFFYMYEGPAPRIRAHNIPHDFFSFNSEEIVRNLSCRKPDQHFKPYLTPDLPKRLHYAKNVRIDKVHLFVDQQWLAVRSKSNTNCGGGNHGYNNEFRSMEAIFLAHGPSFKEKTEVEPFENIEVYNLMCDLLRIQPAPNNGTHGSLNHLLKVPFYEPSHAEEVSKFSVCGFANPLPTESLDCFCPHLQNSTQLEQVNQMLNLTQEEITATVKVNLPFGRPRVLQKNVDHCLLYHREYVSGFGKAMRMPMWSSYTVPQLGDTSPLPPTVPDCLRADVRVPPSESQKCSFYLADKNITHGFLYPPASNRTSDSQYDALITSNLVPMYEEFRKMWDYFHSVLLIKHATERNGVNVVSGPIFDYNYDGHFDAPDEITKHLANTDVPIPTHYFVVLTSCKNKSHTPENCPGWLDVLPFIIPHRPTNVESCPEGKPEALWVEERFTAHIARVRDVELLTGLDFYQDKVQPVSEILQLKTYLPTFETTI

T2: biotinylated cynomolgus CD203c (bio-cyCD203c, Icosagen) (cynomolgus monkey, UniProt A0A2K5TKP4 31-874, biotinylated (site not stated))
T2 construct: Captured on a Biotin CAPture chip for SPR; also called cyno CD203c
T2 sequence: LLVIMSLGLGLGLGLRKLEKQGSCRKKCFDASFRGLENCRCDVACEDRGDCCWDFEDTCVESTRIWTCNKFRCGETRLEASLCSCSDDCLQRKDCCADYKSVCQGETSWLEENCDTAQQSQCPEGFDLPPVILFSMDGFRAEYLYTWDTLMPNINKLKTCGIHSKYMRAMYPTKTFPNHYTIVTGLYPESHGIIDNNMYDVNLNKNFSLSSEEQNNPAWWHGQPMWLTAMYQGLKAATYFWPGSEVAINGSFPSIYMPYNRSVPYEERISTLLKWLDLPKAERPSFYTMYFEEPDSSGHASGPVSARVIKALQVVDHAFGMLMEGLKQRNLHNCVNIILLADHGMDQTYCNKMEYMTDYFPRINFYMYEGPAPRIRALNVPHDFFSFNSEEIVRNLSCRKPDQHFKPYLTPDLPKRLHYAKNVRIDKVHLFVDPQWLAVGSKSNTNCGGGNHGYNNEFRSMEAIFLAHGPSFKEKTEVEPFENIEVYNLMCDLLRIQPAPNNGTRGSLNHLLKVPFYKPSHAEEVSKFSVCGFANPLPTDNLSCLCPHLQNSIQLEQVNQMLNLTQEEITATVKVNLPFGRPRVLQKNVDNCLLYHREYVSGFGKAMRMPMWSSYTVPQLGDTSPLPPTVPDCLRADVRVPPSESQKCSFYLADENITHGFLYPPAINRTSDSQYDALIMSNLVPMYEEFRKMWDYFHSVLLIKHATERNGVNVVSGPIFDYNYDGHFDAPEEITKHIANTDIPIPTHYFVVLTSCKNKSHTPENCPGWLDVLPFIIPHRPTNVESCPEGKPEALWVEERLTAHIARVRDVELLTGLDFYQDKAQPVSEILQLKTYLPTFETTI

T3: biotinylated human CD203c (bio-huCD203c, Acro, Cat. nr. H52H4) (human, UniProt O14638 49-875, limits assumed, biotinylated (site not stated))
T3 construct: Captured on a Biotin CAPture chip for SPR
T3 sequence (looked up): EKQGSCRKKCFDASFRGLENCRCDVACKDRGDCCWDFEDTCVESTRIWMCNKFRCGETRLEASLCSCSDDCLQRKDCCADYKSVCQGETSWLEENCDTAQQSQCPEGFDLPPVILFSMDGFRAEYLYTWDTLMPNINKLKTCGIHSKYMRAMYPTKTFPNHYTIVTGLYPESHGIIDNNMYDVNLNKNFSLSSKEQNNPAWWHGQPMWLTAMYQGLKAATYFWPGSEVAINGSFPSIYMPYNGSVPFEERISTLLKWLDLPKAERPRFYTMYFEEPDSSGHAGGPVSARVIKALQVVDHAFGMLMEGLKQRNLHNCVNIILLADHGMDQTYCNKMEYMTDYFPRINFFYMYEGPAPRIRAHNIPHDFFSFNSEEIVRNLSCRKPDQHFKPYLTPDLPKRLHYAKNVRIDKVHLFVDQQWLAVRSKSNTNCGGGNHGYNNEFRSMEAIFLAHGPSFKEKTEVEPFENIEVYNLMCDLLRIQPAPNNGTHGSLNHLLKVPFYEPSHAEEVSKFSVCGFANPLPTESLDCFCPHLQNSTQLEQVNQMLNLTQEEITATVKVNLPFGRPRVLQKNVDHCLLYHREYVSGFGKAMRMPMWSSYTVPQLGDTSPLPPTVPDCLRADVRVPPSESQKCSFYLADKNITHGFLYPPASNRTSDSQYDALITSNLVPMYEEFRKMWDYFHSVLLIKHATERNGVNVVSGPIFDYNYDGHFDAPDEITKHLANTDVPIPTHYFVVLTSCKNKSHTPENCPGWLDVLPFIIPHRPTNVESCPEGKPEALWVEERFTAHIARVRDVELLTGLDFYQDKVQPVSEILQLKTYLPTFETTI

B1: bispecific pair with alternative common light chain VL3: MH1 VH / 2.14_1 VH / VL3 (bispecific antibody, V domains shown)
VH 1: QVQLVQSGAEVKKPGASVKVSCKASGYTFTDYYMNWVRQAPGQGLEWMGRIYPGSGNTYYAQKFQGRVTMTRDTSTSTVYMELSSLRSEDTAVYYCARGVYYYDYWGQGTLVTVSS
VH 2: QVQLQESGPGLVKPSQTLSLTCTVSGGSISSGGYYWSWIRQHPGKGLEWIGIIYYSGSTYYNPSLKSRVTISVDTSKNQFSLKLNSVTAADTAVFYCARVAIVTTIPGGMDVWGQGTTVTVSS
VL: EIVLTQSPDFQSVTPKEKVTITCRASQGIRTNLAWYQQKPDQSPKLLIKAASSLQSGVPSRFSGSGSGTDFTLTINSLEAEDAATYYCQQYNSYPRTFGQGTKVEIK
B2: 1.27-Fab (Fab, V domains shown)
VH: EVQLVQSGAEVKKPGESLKISCKGSGYRFTSYWIGWVRQMPGKGLEWMGIIYPGDSDTRYSPSFQGQVTISADKSISTAYLQWSSLKASDTAMYYCARKDYYYYAMDVWGQGTTVTVSS
VL: DIQMTQSPSSLSASVGDRVTITCRASQGIRTNLAWFQQKPGKAPKSLIYAASSLQSGVPSRFSGSGSGTDFTLTISSLQPEDFATYYCQQYNSYPRTFGGGTKVEIK

Legend:
[1] = biological target: c-Kit (antigen of the binding assay of FIG. 9A) (Homo sapiens (Human), UniProt P10721 26-524); test: plate binding assay on Human c-KIT, A450-A630 (ratio corrected)
c-Kit (antigen of the binding assay of FIG. 9A), sequence (P10721 26-524 limits assumed): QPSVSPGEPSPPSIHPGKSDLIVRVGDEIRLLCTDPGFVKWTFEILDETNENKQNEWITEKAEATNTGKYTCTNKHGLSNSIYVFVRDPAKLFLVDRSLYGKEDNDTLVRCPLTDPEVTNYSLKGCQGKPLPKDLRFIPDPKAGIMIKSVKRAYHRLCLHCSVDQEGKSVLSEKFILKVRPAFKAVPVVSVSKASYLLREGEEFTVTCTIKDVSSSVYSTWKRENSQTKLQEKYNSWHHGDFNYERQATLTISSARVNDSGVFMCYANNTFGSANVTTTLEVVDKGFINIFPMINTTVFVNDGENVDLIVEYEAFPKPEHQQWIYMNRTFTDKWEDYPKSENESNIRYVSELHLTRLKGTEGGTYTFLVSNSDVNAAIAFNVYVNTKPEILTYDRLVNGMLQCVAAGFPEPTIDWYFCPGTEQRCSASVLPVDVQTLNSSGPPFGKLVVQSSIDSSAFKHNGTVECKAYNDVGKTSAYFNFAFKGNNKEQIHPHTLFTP

[2] = biological target: T1, CD203c (ENPP3) (antigen of the binding …); test: plate binding assay on Human ENPP3, A450-A630 (ratio corrected)
[3] = biological target: T2, biotinylated cynomolgus CD203c …; test: SPR (Biacore), biotinylated CD203c captured on the chip, Fab as analyte 1000 - 7.81 nM; response-versus-concentration fits in FIG. 11A-11C
Description: (§1) Biotinylated versions of the CD203c proteins were captured on a BiotinCap chip, and the antibodies injected in-solution in 2-fold serial dilutions. An SPR affinity determination assay was carried out on a BIAcore T20 using the conditions described below: [0212] […] Ligand Capture—biotinylated antigen: bio-huCD203c (Acro, Cat. nr. H52H4) and bio-cyCD203c (Icosagen) at 20 nM and 10 nM, respectively, in 1×HBS-EP+pH 7.4, on flow cell 2 over 1 min at 10 μl/min [0215] […] Complete blank assay runs without analyte antibody were included as blank reference. [0216] […] Regeneration: Baseline levels were restored using the regeneration solutions provided in the Biotin CAPture kit [0218] SPR running buffer: 1×HBS-EP+pH 7.4 (Cytiva; cat. nr. BR100669) [0219] Analysis: Data was analyzed using the Biacore Insight Evaluation Software by the steady state affinity model or the 1:1 binding model. Sensorgrams were referenced to flow cell 1 and the 0 nM concentration cycle.

[4] = biological target: T3, biotinylated human CD203c …; test: as above
Description: as §1

Binder	EC50 (read off the curve) [1] [µg/mL]	binding result [2]	Kd [3] [nM]	Kd [4] [nM]
B1	~0.1	no binding (tested: 200 µg/ml)	–	–
B2	–	–	387	705
